According to EP4790071A2:
Several values for one entry are separate records, joined by “and”; a condition that tells them apart may be missing. Equal values may be shown once.

Experiments:
[1] = biological target: FcγRIIIa (from Sino Biological, also known as CD16a) (UniProt P08637); assay: BLI (Fortebio), FcγRIIIa on SA sensor, antibody 31.3-500 nM, 30 C, 1:1 fit
[2] = biological target: human NT5E-Biotin (for NT5E, GenbankID: NP_002517.1, position: 1-552) (human) (UniProt P21589); assay: ELISA, NT5E-Biotin on streptavidin plate; antibody 0.333 ug/mL diluted 1:9
[3] = biological target: CD73 endogenously expressed on the cell surface (MDA-MB-231 cells; U87-MG cells) (UniProt P21589); assay: flow cytometry on MDA-MB-231 cells
[4] = biological target: human NT5E-Biotin (for NT5E, GenbankID: NP_002517.1, position: 1-552) (human) (UniProt P21589); assay: ELISA, NT5E-Biotin on streptavidin plate; antibody 0.333 ug/mL
[5] = biological target: CD73 endogenously expressed on the cell surface (MDA-MB-231 cells; U87-MG cells) (UniProt P21589); assay: flow cytometry on MDA-MB-231 cells; antibody 0.41 nM
[6] = biological target: human NT5E-Biotin (for NT5E, GenbankID: NP_002517.1, position: 1-552) (human) (UniProt P21589); assay: ELISA, NT5E-Biotin on streptavidin plate
[7] = biological target: CD73 endogenously expressed on the cell surface (MDA-MB-231 cells; U87-MG cells) (UniProt P21589); assay: flow cytometry on MDA-MB-231 cells; antibody 0.14 nM
[8] = biological target: human NT5E-Biotin (for NT5E, GenbankID: NP_002517.1, position: 1-552) (human) (UniProt P21589); assay: ELISA, NT5E-Biotin on streptavidin plate; antibody 0.333 ug/mL diluted 1:243
[9] = biological target: human NT5E(1-552)-his (human) (UniProt P21589); assay: BLI (Fortebio), antibody on Protein A sensor, antigen 3.125-200 nM, 37 C, 1:1 fit
[10] = biological target: human NT5E-Biotin (for NT5E, GenbankID: NP_002517.1, position: 1-552) (human) (UniProt P21589); assay: ELISA, NT5E-Biotin on streptavidin plate; antibody 0.333 ug/mL diluted 1:729
[11] = biological target: human NT5E-Biotin (for NT5E, GenbankID: NP_002517.1, position: 1-552) (human) (UniProt P21589); assay: ELISA, NT5E-Biotin on streptavidin plate; antibody 0.333 ug/mL diluted 1:81
[12] = biological target: human NT5E-Biotin (for NT5E, GenbankID: NP_002517.1, position: 1-552) (human) (UniProt P21589); assay: ELISA, NT5E-Biotin on streptavidin plate; antibody 0.333 ug/mL diluted 1:3
[13] = biological target: human NT5E-Biotin (for NT5E, GenbankID: NP_002517.1, position: 1-552) (human) (UniProt P21589); assay: ELISA, NT5E-Biotin on streptavidin plate; antibody 0.333 ug/mL diluted 1:27

FcγRIIIa (from Sino Biological, also known as CD16a), sequence (P08637 17-208 limits assumed): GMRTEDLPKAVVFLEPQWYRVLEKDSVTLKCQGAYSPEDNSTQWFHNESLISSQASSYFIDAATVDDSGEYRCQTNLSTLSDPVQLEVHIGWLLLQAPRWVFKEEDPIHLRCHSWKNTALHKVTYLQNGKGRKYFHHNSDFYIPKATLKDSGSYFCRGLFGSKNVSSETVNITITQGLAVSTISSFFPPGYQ
CD73 endogenously expressed on the cell surface (MDA-MB-231 cells; U87-MG cells), sequence (P21589 27-549 limits assumed): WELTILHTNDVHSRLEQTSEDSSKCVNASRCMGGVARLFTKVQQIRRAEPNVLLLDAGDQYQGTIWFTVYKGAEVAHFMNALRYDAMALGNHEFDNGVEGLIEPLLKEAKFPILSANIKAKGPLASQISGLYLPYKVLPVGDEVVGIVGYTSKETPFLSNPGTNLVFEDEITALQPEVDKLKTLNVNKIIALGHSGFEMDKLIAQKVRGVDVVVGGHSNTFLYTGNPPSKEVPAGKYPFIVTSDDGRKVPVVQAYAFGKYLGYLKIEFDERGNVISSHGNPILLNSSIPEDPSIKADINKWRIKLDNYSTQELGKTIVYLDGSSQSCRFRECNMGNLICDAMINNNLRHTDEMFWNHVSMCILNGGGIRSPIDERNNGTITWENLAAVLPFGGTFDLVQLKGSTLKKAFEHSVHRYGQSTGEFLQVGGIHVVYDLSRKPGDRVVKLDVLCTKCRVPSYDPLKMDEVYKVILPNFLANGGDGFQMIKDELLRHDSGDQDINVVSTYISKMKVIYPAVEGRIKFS
human NT5E(1-552)-his (human), sequence (P21589 27-552 limits assumed, form in doubt): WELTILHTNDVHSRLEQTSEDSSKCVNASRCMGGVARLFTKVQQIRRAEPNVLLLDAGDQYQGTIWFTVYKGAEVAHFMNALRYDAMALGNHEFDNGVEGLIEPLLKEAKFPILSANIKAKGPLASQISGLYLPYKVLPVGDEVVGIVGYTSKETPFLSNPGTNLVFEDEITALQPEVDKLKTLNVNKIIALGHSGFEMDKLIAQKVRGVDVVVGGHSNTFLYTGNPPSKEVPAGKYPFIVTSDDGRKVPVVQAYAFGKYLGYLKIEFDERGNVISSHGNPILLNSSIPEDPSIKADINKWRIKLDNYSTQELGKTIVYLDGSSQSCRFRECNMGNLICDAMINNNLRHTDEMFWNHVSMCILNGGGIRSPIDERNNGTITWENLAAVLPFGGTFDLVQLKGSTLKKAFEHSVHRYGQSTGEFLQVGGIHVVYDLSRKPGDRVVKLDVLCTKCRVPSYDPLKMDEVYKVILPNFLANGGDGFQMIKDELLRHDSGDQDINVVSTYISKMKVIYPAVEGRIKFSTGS
human NT5E-Biotin (for NT5E, GenbankID: NP_002517.1, position: 1-552) (human), sequence (P21589 27-552 limits assumed, form in doubt): as above

| Kd [1] [nM] | koff [1] [s⁻¹] | kon [1] [M⁻¹ s⁻¹] | OD (450 nm) [2] | EC50 [3] [nM] | OD (450 nm) [4] | FACS fluorescence signal (read-out not given) [5] | EC50 [6] [nM] | FACS fluorescence signal (read-out not given) [7] | OD (450 nm) [8] | Kd [9] [nM] | S E (kon) [9] [M⁻¹ s⁻¹] | S E(kdis) [9] [s⁻¹] | koff [9] [s⁻¹] | kon [9] [M⁻¹ s⁻¹] | OD (450 nm) [10] | OD (450 nm) [11] | OD (450 nm) [12] | OD (450 nm) [13] | Substance |
| --- | --- | --- | --- | --- | --- | --- | --- | --- | --- | --- | --- | --- | --- | --- | --- | --- | --- | --- | --- |
| 125 | 0.022 | 176000 |  |  |  |  |  |  |  |  |  |  |  |  |  |  |  |  | Wild-type IgG1 antibody |
| 141 | 0.0342 | 243000 | 2.27 and 2.28 | 1.43 | 2.55 and 2.53 | 91 | 0.048 | 43.2 | 0.536 and 0.528 | 0.104 | 3200 | 5.02e-06 | 2.44e-05 | 234000 | 0.272 and 0.275 | 1.06 and 1.03 | 2.57 and 2.6 | 1.77 and 1.74 | positive control antibody MEDI9447 (oleclumab) |
